Test results reported in patent publication US20250281631A1 (SICHUAN KELUN BIOTECH BIOPHARMACEUTICAL, published 2025).

Columns and labels:
[1] = target: T1, human epidermal growth factor receptor 3 (HER3) (human, UniProt P21860 20-1342); test: flow cytometry on KPL-4 cells
T1 construct: whole, on cells; also called ErbB3; Erbb3
Procedure: (§1) The affinity of anti-human HER3 ADC to MDA-MB-453, NCI-H358, KPL-4, and A431 cells was detected by flow cytometry (Beckman, model Cytoflex).
(§2) Adherent MDA-MB-453, NCI-H358, KPL-4, A431 cells were digested with Tryple (manufacturer: Gibco) solution, counted, and an appropriate amount of the cells were taken, washed twice with 1×PBS, resuspended in 1% BSA in PBS solution, and then transferred to a 96-well sharp-bottom plate, 50 μl per well; candidate antibodies and drug conjugates thereof were diluted with 1% BSA in PBS solution by 3-fold or 2.5-fold serial dilution starting from 5 μg/mL, and then 50 μl of the diluted antibody or antibody-drug conjugate was added to the sharp-bottom plate containing the cells, and incubation was carried out at 4° C. for 40 minutes; the cells were washed twice with PBS, then added with 50 μl of diluted secondary antibody to each well, mixed, and incubated at 4° C. for 30 minutes; the cells were washed with PBS twice, then resuspended in 400 μl of PBS and detected by flow cytometry. Data processing: the average fluorescence signal values were exported, and then input into GraphPad Prism 6 software to calculate EC50.

[2] = target: T1, human epidermal growth factor receptor …; test: flow cytometry on NCI-H358 cells
Procedure: as §1, §2

[3] = target: T1, human epidermal growth factor receptor …; test: flow cytometry on A431 cells
Procedure: as §1, §2

[4] = target: T1, human epidermal growth factor receptor …; test: cell-based or functional assay
[5] = target: T1, human epidermal growth factor receptor …; test: flow cytometry on MDA-MB-453 cells (second experiment, dilution from 15 ug/mL)
Procedure: The affinity of anti-human HER3 ADC to MDA-MB-453 cells was detected by flow cytometry (Beckman, model Cytoflex).
Adherent MDA-MB-453 cells were digested with Tryple (manufacturer: Gibco) solution, counted, and an appropriate amount of the cells were taken, washed twice with 1×PBS, resuspended in 1% BSA solution, and then transferred to a 96-well sharp-bottom plate, 50 μl per well; candidate antibodies and drug conjugates thereof were diluted with 1% BSA by 3-fold serial dilution starting from 15 μg/mL, and then 50 μl of the diluted antibody or antibody-drug conjugate was added to the sharp-bottom plate containing the cells, and incubation was carried out at 4° C. for 40 minutes; the cells were washed twice with PBS, then added with 50 μl of diluted secondary antibody to each well, mixed, and incubated at 4° C. for 30 minutes; the cells were washed with PBS twice, then resuspended in 200 μl of PBS and detected by flow cytometry. Data processing: the average fluorescence signal values were exported, and then input into GraphPad Prism 6 software to calculate EC50.

[6] = target: T1, human epidermal growth factor receptor …; test: flow cytometry on MDA-MB-453 cells
Procedure: as §1, §2

Binder	EC50 [1]	EC50 [2]	EC50 [3]	IC50 (nM), in vitro cytotoxicity (CCK8, 6 days) on HEK293T-hHER3 cells [4]	EC50 [5]	IC50 (nM), in vitro cytotoxicity (CCK8, 6 days) on HCC1569 cells [4]	IC50 (nM), in vitro cytotoxicity (CCK8, 6 days) on MDA-MB-453 cells [4]	EC50 [6]
ADC 100H7-A-07-A (antibody, human IgG1, kappa, V domains shown, drug-linker A-07-A on a cysteine sulfhydryl group; LC-DAR1 ratio 1.000; drug-linker A-07-A on cysteine sulfhydryl groups after TCEP reduction; mainly 3 per heavy chain (HC-DAR3 ratio 0.989)) VH: EVQLVESGGGVVLPGRSLRLSCAASGFTFSRNAMHWVRQAPGKGLEWVAVIWHDGSNKYYGDSVKGRFTISRDNSKNTLYLQMDSLTAEDTAVYYCARDRGASDFRGQGTLVTVSS VL: DIQMTQSPSTLSASVGDRVTITCRASQSINNWLAWYQQKPEKAPKLLIYKASSLESGVPSRFSGSGSGTEFTLTISSLQPDDFATYYCQQYNSYSLTFGGGTKVEIKR	0.274 mg/L	0.427 mg/L	0.266 mg/L	–	–	–	–	–
ADC 22B6-A-01 (antibody, human IgG1, kappa, V domains shown, drug-linker A-01 on a cysteine sulfhydryl group; LC-DAR1 ratio 0.990; drug-linker A-01 on cysteine sulfhydryl groups after TCEP reduction; mainly 3 per heavy chain (HC-DAR3 ratio 0.981)) VH: EVHLVESGGGVVQPGRSLRLSCATSGFTFRSYGMHWVRQAPGKGLEWVAVIWYDGSNKYYADSVKGRFTISRDISKNTLYLQMNSLTAEDTAVYYCARYYYDSNGYYDAFDIWGQGTMVTVSS VL: DIQLTQSPSFLSASVGDRVTITCRASQGISNYLAWYQQKPGKAPKLLIFAASTLQSGVPSRFSGSGSGAEFTLTISSLEPEDFATYYCQQLNSYPITFGQGTRLEIKR	0.0387 mg/L	0.0445 mg/L	0.0307 mg/L	0.0014 nM	–	–	–	–
ADC 22B6-A-07-A-1 (antibody, human IgG1, kappa, V domains shown, drug-linker A-07-A on a cysteine sulfhydryl group; mainly 1 per light chain (LC-DAR1 ratio 0.998); drug-linker A-07-A on cysteine sulfhydryl groups after TCEP reduction; mainly 3 per heavy chain (HC-DAR3 ratio 0.966)) VH: EVHLVESGGGVVQPGRSLRLSCATSGFTFRSYGMHWVRQAPGKGLEWVAVIWYDGSNKYYADSVKGRFTISRDISKNTLYLQMNSLTAEDTAVYYCARYYYDSNGYYDAFDIWGQGTMVTVSS VL: DIQLTQSPSFLSASVGDRVTITCRASQGISNYLAWYQQKPGKAPKLLIFAASTLQSGVPSRFSGSGSGAEFTLTISSLEPEDFATYYCQQLNSYPITFGQGTRLEIKR	0.0325 mg/L	0.0329 mg/L	0.0284 mg/L	0.0038 nM	0.147 mg/L	15.6 nM	19 nM	0.056 mg/L
ADC 22B6-B-01 (antibody, human IgG1, kappa, V domains shown, drug-linker B-01 on a cysteine sulfhydryl group; LC-DAR1 ratio 0.999; drug-linker B-01 on cysteine sulfhydryl groups after TCEP reduction; mainly 3 per heavy chain (HC-DAR3 ratio 0.933)) VH: EVHLVESGGGVVQPGRSLRLSCATSGFTFRSYGMHWVRQAPGKGLEWVAVIWYDGSNKYYADSVKGRFTISRDISKNTLYLQMNSLTAEDTAVYYCARYYYDSNGYYDAFDIWGQGTMVTVSS VL: DIQLTQSPSFLSASVGDRVTITCRASQGISNYLAWYQQKPGKAPKLLIFAASTLQSGVPSRFSGSGSGAEFTLTISSLEPEDFATYYCQQLNSYPITFGQGTRLEIKR	0.0519 mg/L	0.0298 mg/L	0.0328 mg/L	–	–	–	–	–
ADC 22B6-B-04-02 (antibody, human IgG1, kappa, V domains shown, drug-linker B-04 on cysteine sulfhydryl groups after TCEP reduction (overall DAR 6.87; split between the chains not given), Antibody-drug conjugate of 22B6D2-hIgG1 with drug-linker B-04; also called 22B6-B-04-2) VH: EVHLVESGGGVVQPGRSLRLSCATSGFTFRSYGMHWVRQAPGKGLEWVAVIWYDGSNKYYADSVKGRFTISRDISKNTLYLQMNSLTAEDTAVYYCARYYYDSNGYYDAFDIWGQGTMVTVSS VL: DIQLTQSPSFLSASVGDRVTITCRASQGISNYLAWYQQKPGKAPKLLIFAASTLQSGVPSRFSGSGSGAEFTLTISSLEPEDFATYYCQQLNSYPITFGQGTRLEIKR	–	–	–	–	0.195 mg/L	–	–	–
22B6D2-hIgG1 (antibody, V domains shown) VH: EVHLVESGGGVVQPGRSLRLSCATSGFTFRSYGMHWVRQAPGKGLEWVAVIWYDGSNKYYADSVKGRFTISRDISKNTLYLQMNSLTAEDTAVYYCARYYYDSNGYYDAFDIWGQGTMVTVSS VL: DIQLTQSPSFLSASVGDRVTITCRASQGISNYLAWYQQKPGKAPKLLIFAASTLQSGVPSRFSGSGSGAEFTLTISSLEPEDFATYYCQQLNSYPITFGQGTRLEIKR	–	–	–	–	0.0854 mg/L	–	–	0.0392 mg/L
U1-59 (HER3 control antibody) (antibody, V domains shown) VH: QVQLQQWGAGLLKPSETLSLTCAVYGGSFSGYYWSWIRQPPGKGLEWIGEINHSGSTNYNPSLKSRVTISVETSKNQFSLKLSSVTAADTAVYYCARDKWTWYFDLWGRGTLVTVSS VL: not shown	–	–	–	–	0.684 mg/L	–	–	0.426 mg/L
ADC 47A3-A-07-A (antibody, human IgG1, kappa, V domains shown, drug-linker A-07-A on a cysteine sulfhydryl group; LC-DAR1 ratio 0.820; drug-linker A-07-A on cysteine sulfhydryl groups after TCEP reduction; HC-DAR3 ratio 0.760, HC-DAR0 ratio 0.222) VH: EVQLQESGPGLVKPSQTLSLTCAISGDSVSSSQSTWNWIRQSPSRGLEWLGRTFYRSRWYNDYALSMKSRITINPDTSKNQFSLQLNPVTPEDTAVYYCARDTYYYGSGGFDYWGQGSRVTVSS VL: DIQMTQSPSTLSASVGDRVTITCRASQSLSRWLAWYQQKPEKAPKLLIYKASSLESGVPSRFSGSGSGTEFTLTISTLQPDDFATYYCQQYKNYYSFGQGTKLEIKR	0.125 mg/L	0.158 mg/L	0.0656 mg/L	–	–	–	–	–
